From IntAct's records for PubMed 19666485 come the findings set out here.

The chains are these.
B1: Chromodomain-helicase-DNA-binding protein 1-like (Homo sapiens), Q86WJ1-1 (parent)
chain: MERAGATSRGGQAPGFLLRLHTEGRAEAARVQEQDLRQWGLTGIHLRSYQLEGVNWLAQRFHCQNGCILGDEMGLGKTCQTIALFIYLAGRLNDEGPFLILCPLSVLSNWKEEMQRFAPGLSCVTYAGDKEERACLQQDLKQESRFHVLLTTYEICLKDASFLKSFPWSVLVVDEAHRLKNQSSLLHKTLSEFSVVFSLLLTGTPIQNSLQELYSLLSFVEPDLFSKEEVGDFIQRYQDIEKESESASELHKLLQPFLLRRVKAEVATELPKKTEVVIYHGMSALQKKYYKAILMKDLDAFENETAKKVKLQNILSQLRKCVDHPYLFDGVEPEPFEVGDHLTEASGKLHLLDKLLAFLYSGGHRVLLFSQMTQMLDILQDYMDYRGYSYERVDGSVRGEERHLAIKNFGQQPIFVFLLSTRAGGVGMNLTAADTVIFVDSDFNPQNDLQAAARAHRIGQNKSVKVIRLIGRDTVEEIVYRKAASKLQLTNMIIEGGHFTLGAQKPAADADLQLSEILKFGLDKLLASEGSTMDEIDLESILGETKDGQWVSDALPAAEGGSRDQEEGKNHMYLFEGKDYSKEPSKEDRKSFEQLVNLQKTLLEKASQEGRSLRNKGSVLIPGLVEGSTKRKRVLSPEELEDRQKKRQEAAAKRRRLIEEKKRQKEEAEHKKKMAWWESNNYQSFCLPSEESEPEDLENGEESSAELDYQDPDATSLKYVSGDVTHPQAGAEDALIVHCVDDSGHWGRGGLFTALEKRSAEPRKIYELAGKMKDLSLGGVLLFPVDDKESRNKGQDLLALIVAQHRDRSNVLSGIKMAALEEGLKKIFLAAKKKKASVHLPRIGHATKGFNWYGTERLIRKHLAARGIPTYIYYFPRSKSAVLHSQSSSSSSRQLVP

This test covers variants of B1. The note with it: with parp1_human PARP1, P09874.
Chain of parp1_human PARP1, P09874 (P09874 whole entry): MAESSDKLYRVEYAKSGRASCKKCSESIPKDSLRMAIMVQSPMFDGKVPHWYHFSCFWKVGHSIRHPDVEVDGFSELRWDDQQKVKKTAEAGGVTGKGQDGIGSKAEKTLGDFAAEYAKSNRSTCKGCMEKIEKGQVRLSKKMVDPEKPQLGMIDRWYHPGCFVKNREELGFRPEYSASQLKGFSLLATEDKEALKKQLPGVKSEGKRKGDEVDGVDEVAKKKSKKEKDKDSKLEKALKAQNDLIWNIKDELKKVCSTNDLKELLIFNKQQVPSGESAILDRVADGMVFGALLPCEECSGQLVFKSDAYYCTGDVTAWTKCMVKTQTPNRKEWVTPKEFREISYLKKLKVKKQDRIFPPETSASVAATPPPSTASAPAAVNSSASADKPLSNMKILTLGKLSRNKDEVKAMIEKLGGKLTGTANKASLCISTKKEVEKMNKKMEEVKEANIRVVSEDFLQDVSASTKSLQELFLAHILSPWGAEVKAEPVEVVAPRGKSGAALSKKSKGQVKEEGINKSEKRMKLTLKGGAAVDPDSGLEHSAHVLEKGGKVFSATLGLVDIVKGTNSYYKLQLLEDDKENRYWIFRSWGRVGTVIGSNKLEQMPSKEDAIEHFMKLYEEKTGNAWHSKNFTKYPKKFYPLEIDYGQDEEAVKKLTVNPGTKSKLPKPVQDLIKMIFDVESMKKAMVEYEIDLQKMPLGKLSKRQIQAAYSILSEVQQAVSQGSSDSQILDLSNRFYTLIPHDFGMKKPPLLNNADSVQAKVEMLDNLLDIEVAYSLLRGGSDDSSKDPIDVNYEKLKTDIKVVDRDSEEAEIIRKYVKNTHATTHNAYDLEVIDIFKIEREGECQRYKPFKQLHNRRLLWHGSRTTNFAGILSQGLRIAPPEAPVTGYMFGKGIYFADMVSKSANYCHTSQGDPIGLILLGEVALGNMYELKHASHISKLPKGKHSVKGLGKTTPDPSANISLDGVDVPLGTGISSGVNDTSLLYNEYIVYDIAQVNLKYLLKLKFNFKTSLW
For E175Q, the “effect of a mutation on the interaction” value was “disrupting interaction”.
In the case of D723A, the “effect of a mutation on the interaction” value is listed as “disrupting interaction”.
